Source: US20240067729A1 (PALLEON PHARMACEUTICALS, published 2024)
Substitutions are numbered along the chain they refer to. Numbers in names are those of the source. Where two headings read alike, the source gives them in different places. One block for each binder: values may come before it.

Assays:
[1] = biological target: T1, cynomolgus PD-L1, his tagged (cPD-L1-his) (cynomolgus (Macaca fascicularis), UniProt G7PSE7 19-238); assay: BLI (ForteBio Octet), mouse IgG on AMC sensor, cPD-L1-his analyte, 1:1 fit
T1 construct: also called cyPD-L1-His; Cyno PD-L1
Method: (§1) Screening of purified hybridoma antibodies. ForteBio octet binding of purified antibodies to recombinant hPD-L1-his and cPD-L1-his was measured. Mouse IgGs purified from hybridoma supernatant were captured on AMC (Anti-mouse IgG-Capture) Biosensor. hPD-L1-his or cPD-L1-his analytes were titrated from 100 nM in a 2× series dilution. The signal was subtracted with buffer reference and aligned to the baseline. KD, Kon and Koff values were generated using a 1:1 fitting model. […] The X-axes represent assay time in seconds, and the Y-axes represent binding signal on the biosensor. Each line represents the real time signal of antigen association and dissociation at the given antigen concentration in the assay (e.g., the top line represents the signal of the highest antigen concentration in the assay, the second top line represents the second highest concentration in the assay). The vertical dashed line represents the time point that the assay was moved from association step to the dissociation step. All the ForteBio/Octet assays were using standard/conventional settings and the graphs provided in the figures will be understood by one of skill in the art.

[2] = biological target: T2, human PD-L1, his tagged (hPD-L1-his) (human, UniProt Q9NZQ7 19-238, limits assumed); assay: BLI (ForteBio Octet), mouse IgG on AMC sensor, hPD-L1-his analyte, 1:1 fit
T2 construct: also called huPD-L1-His; recombinant human PD-L1; not shown: his tag
Method: as §1

[3] = biological target: T1, cynomolgus PD-L1, his tagged …; assay: ELISA on cynomolgus PD-L1
[4] = biological target: T3, human PD-L1 Fc fusion (hPD-L1-Fc) (human, UniProt Q9NZQ7 19-238, limits assumed); assay: blocking ELISA: antibody titrated + biotin-hPD-1-Fc 1 ug/mL on coated hPD-L1-Fc
T3 construct: not shown: Fc part
Source text: The plate was developed with TMB and Stop buffer, the absorbance at 450 nm was read using SpectraMax plate reader. The A450 absorbance was normalized to the control that without antibody for the percentage values. The curve and IC₅₀ were generated using GraphPad Prism software.

[5] = biological target: T2, human PD-L1, his tagged (hPD-L1-his); assay: BLI (ForteBio Octet), hPD-L1-his
Method: (§2) Characterization of chimeric anti-PD-L1 antibodies. ForteBio octet binding of purified chimeric antibodies and recombinant hPD-L1-his and cPD-L1-his was measured. Chimeric human antibodies were captured on AHC (Anti-human IgG-Capture) Biosensor, hPD-L1-his or cPD-L1-his analytes were titrated from 100 nM in a 2× series dilution. The buffer reference was subtracted from the signal and aligned to the baseline. KD, Kon and Koff values were generated using 1:1 fitting model as described above. […]

[6] = biological target: T1, cynomolgus PD-L1, his tagged …; assay: BLI (ForteBio Octet), cPD-L1-his
Method: as §2

[7] = biological target: T2, human PD-L1, his tagged (hPD-L1-his); assay: BLI (ForteBio Octet), hPD-L1-his; remark: listed apart in the source
Method: Characterization of chimeric anti-PD-L1 antibodies. ForteBio octet binding of purified chimeric antibodies and recombinant hPD-L1-his and cPD-L1-his was measured. Chimeric human antibodies were captured on AHC (Anti-human IgG-Capture) Biosensor, hPD-L1-his or cPD-L1-his analytes were titrated from 100 nM in a 2× series dilution. The buffer reference was subtracted from the signal and aligned to the baseline. KD, Kon and Koff values were generated using 1:1 fitting model as described above.
Selected h769 antibodies were tested in the blocking ELISA as described in Example 3 herein. […] Selected h769 humanized PD-L1 antibodies were characterized following removal of the deamidation motif in CDR-L3. FIG. 25 depicts the ForteBio octet binding of purified humanized antibodies and recombinant hPD-L1-his was measured.

T1 sequence (G7PSE7 entry or part of it limits assumed, form in doubt): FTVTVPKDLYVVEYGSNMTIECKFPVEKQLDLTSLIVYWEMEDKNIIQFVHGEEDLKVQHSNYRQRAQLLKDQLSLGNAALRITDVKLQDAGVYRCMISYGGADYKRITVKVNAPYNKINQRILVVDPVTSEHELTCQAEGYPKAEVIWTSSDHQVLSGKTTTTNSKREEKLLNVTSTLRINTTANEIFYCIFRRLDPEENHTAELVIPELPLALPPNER
T3 sequence (Q9NZQ7 19-238 limits assumed): as the sequence (G7PSE7 entry or part of it limits assumed, form in doubt) above, with T33A, S34A, N62S, Q68R, R82Q, L173F, A185T, I192T, L215H counted along it
T2 sequence (Q9NZQ7 19-238 limits assumed): as the sequence (G7PSE7 entry or part of it limits assumed, form in doubt) above, with T33A, S34A, N62S, Q68R, R82Q, L173F, A185T, I192T, L215H counted along it

Kd [1]: 1.15 nM | Kd [2]: 0.592 nM
B1: PAL771 (hybridoma 2D10.E2.B9) (antibody, V domains shown)
VH: EVQLQESGAELVKPGASVKLSCTASGFNIKDTYMHWVKQRPEQGLEWIGRIDPANGNTKYDPKFPGKATITADTSSNTAYLQLSSLTSEDAAVYYCARPFNYRFYDVYYFDYWGQGTTLTVST
VL: QIVLTQSPAIMSASPGEKVTMTCSASSSVSYMYWYQQKPGSSPRLLIYDTSNLASGVPLRFSGSGSGTSYSLTLSRMEAEDAATYYCQQWSTYPLTFGAGTKLELK
notes: Mouse IgG purified from hybridoma supernatant

Kd [1]: 0.642 nM | Kd [2]: 1.02 nM | ELISA cyno, Fold over Bkg [3]: 4.98 fold over background | IC50 [4]: 0.68 nM
B3: PAL785 (hybridoma 16G1.A5) (antibody, V domains shown)
VH: EVQLQESGPELVKPGTSVKMSCKASGYTFTSYVMHWVKQRPGQGLEWIGYINPYNDGSKYNEKFKGKATLTSDTSSSTAYMELSSLTSEDSAVYYCAKQTLDFWGQGTSVTVST
VL: DIVLTQSPASLAVSLGQRATISCRASESVEFYGTTLMQWYQQKPGQPPKLLIYAASNVESGVPARFSGSGSGTDFSLNIHPVEEGDIGMYFCQQSRKVPYTFGGGTKLEIK
notes: as for B1

Kd [1]: 0.0577 nM | Kd [2]: 0.803 nM | ELISA cyno, Fold over Bkg [3]: 36.9 fold over background | IC50 [4]: 0.81 nM
B6: PAL767 (hybridoma 1G7.A8) (antibody, V domains shown)
VH: EVQLQESGPSLVKPSQTLSLTCSVTGDSITSGYWNWIRKFPGNKLEYMGYISYTGSTYYNPSLKRRISITRDTSKNQYYLQLNSVTTEDTATYYCASQGGWLQAMDYWGQGTSVTVSS
VL: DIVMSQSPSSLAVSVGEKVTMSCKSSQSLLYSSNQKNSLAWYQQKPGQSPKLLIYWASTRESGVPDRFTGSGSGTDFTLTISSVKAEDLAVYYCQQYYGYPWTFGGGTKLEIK
notes: as for B1

koff [7]: 0.00058 s⁻¹ | kon [7]: 292000 M⁻¹ s⁻¹
B11: h769-N93 (humanized 769-hIgG1 variant keeping N93 in CDR-L3) (antibody, V domains shown)
VH: EVQLVQSGAEVKKPGATVKISCKVSGFNIKDTYMHWVQQAPGKGLEWMGLIDPANDNTIYAEKFQGRVTITADTSTDTAYMELSSLRSEDTAVYYCAREGYGGSYGEGYWGQGTLVTVSS
VL: EIVMTQSPPTLSLSPGERVTLSCRASQSVSNDLSWYQQKPGQAPRLLIYYASIRFTGIPARFSGSGSGTDFTLTISSLQPEDFAVYYCQQDYNSPWTFGQGTKVEIK

Kd [5]: 2.48 nM | koff [5]: 0.000818 s⁻¹ | kon [5]: 331000 M⁻¹ s⁻¹ | Kd [6]: 3.01 nM | koff [6]: 0.000593 s⁻¹ | kon [6]: 204000 M⁻¹ s⁻¹
B12: h769-tm2 (humanized 769-hIgG1 variant) (antibody, V domains shown)
VH: B11 VH
VL: B11 VL with S67Y

Kd [5]: 2.95 nM | koff [5]: 0.000904 s⁻¹ | kon [5]: 311000 M⁻¹ s⁻¹ | Kd [6]: 3.11 nM | koff [6]: 0.00065 s⁻¹ | kon [6]: 211000 M⁻¹ s⁻¹
B14: h769-tm3 (humanized 769-hIgG1 variant) (antibody, V domains shown)
VH: B11 VH
VL: B11 VL with Y87F

The next lines start with the binder.

B2: PAL771.2 (hybridoma 2D10.E2.H4) (antibody, V domains shown)
VH: B1 VH
VL: B1 VL
Kd [1]: 2.27 nM

B4: PAL752 (hybridoma 4G6.H4) (antibody, V domains shown)
VH: EVQLQESGAELARPGASVKLSCKASGHAFTSDSINWVKQRIGQGLEWIGEIYPRSGNPYYNEKFKGKATLTADKSSSTAYMELRSLTSEDSAVYFCATDYYGRYFDVWGTGTTVTVSS
VL: DIQMTQSSFSFSVSLGDRVTIICKASEDIYNRLAWYQQKPGNTPRLLISGATSLETGVPSRFSGSGSGKDYTLSITSLQTEDVATYYCQQYWSTPWTFGGGTKLEIK
notes: as for B1
Kd [1]: 4.03 nM | Kd [2]: 0.789 nM | ELISA cyno, Fold over Bkg [3]: 18.4 fold over background | IC50 [4]: 2.53 nM

B5: PAL788(3E3) (hybridoma CKH-3E3) (antibody, V domains shown)
VH: QVQLQQPGAELVKPGASVKLSCKASGYTFTSNWMNWVKQRPGRGLEWIGRIHPSDSETHYHQKFKSKATLTVDKSSSTAYIQLSSLTSEDSAVYYCAHSSGDYGRDYWGQGTTLTVSS
VL: NIVLTQSPASLAVSLGQRATISCRASESVDSYGNSFMHWYQQKPGQPPKLLIYLASNLQSGVPARFSGSGSRTDFTLTIDPVEADDAATYYCQQNNEDPWTFGGGTKLEIK
notes: as for B1
Kd [1]: 0.392 nM | Kd [2]: 0.188 nM | ELISA cyno, Fold over Bkg [3]: 24.8 fold over background | IC50 [4]: 0.89 nM

B7: PAL787(3D10) (hybridoma CKH-3D10) (antibody, V domains shown)
VH: QVTLKESGPGILQPSQTLSLTCSFSGFSLSTYGLGVGWIRQPSGKGLEWLANIWWNDDKFYDSVLKSRLTISKDTSNNQVFLKISSVDTSETATYYCAQTLHYYDGIAWFAYWGQGTLVTVSA
VL: DIVMTQSQNFMSTSVGDRVSVTCKASHYVGTFVAWYQQKPGQSPKALIFSTSYRHTGVPDRFTGSGSGTDFTLTISNVQSEDLADYFCQQYYNSPLTFGAGTKLELK
notes: as for B1
Kd [1]: 0.283 nM | Kd [2]: 0.277 nM | ELISA cyno, Fold over Bkg [3]: 38.2 fold over background | IC50 [4]: 4.07 nM

B8: PAL769 (hybridoma 2C1.C8) (antibody, V domains shown)
VH: EVQLQESGAELVKPGASVTLSCTASGFNIKDTYMHWVKQRPEQGLEWIGRIDPANDNTKYDPKFQDKATITADTSSDTAYLRLSSLTSEDTAVYYCAREGYGGSYGEGYWGQGTTLTVSS
VL: SIVMTQTPKFLLVSAGDRVTITCKASQSVSNDVIWYQQKPGQSPKLLIYYASIRFTGVPDRFAGSGYGTDFTFTINTVQAEDLAVYFCQQDYNSPWTFGGGTKLEIK
notes: as for B1
Kd [1]: 1.3 nM | Kd [2]: 0.758 nM | ELISA cyno, Fold over Bkg [3]: 39.5 fold over background | IC50 [4]: 0.51 nM

B9: PAL759 (hybridoma 13F1.B7) (antibody, V domains shown)
VH: EVQLQESGAELVRPGASVKLSCKASGYSFTDYYINWVKQRPGQGLEWIARIYPGSGNTYYNEKFKGKATLTAEKSSITAYMQLSSLTSEDSAVYFCARSYYYGSSYLFDYWGQGTTLTVSS
VL: DILLTQSPAILSVSPGERVSFSCRASQSIGTSIHWYQQRTNGSPRLLIKYASESISGIPSRFSGSGSGTDFTLSINSVESEDIGDYYCQQSNNWPFTFGSGTKLEIK
notes: as for B1
Kd [2]: 1.14 nM | ELISA cyno, Fold over Bkg [3]: 13.1 fold over background | IC50 [4]: 4.64 nM

B10: h769-IF3 (humanized 769-hIgG1 variant) (antibody, V domains shown)
VH: B11 VH
VL: B11 VL
Kd [5]: 2.64 nM | koff [5]: 0.000871 s⁻¹ | kon [5]: 330000 M⁻¹ s⁻¹ | Kd [6]: 2.92 nM | koff [6]: 0.000602 s⁻¹ | kon [6]: 208000 M⁻¹ s⁻¹

B13: h769-N93A (humanized 769-hIgG1 variant, N93A in CDR-L3) (antibody, V domains shown)
VH: B11 VH
VL: B11 VL with N93A
notes: Human IgG1
Kd [7]: 1.46 nM | koff [7]: 0.000414 s⁻¹ | kon [7]: 284000 M⁻¹ s⁻¹
